Reference: the RNAGym collection of RNA variant scans (doi:10.1073/pnas.2313332121)
Variants at the floor of the assay were thinned out.

B1: TPR 5TU (parent)
chain: GGAUCUUCUCGAUCUAACAAAAAAGACAAAUCUGCCACAAAGCUUGAGAGCAUCUUCGGAUGCAGAGGCGGCAGCCUUCGGUGGCGCGAUAGCGCCAACGUUCUCAACUAUGACACGCAAAACGCGUGCUCCGUUGAAUGGAGUUUAUCAUG

Variants of: B1
Assay: polymerase ribozyme fitness, log enrichment relative to wild type (log ratio); higher = more active; in vitro selection for triplet polymerase activity
Outline: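 Each subunit of a heterodimeric triplet polymerase ribozyme was represented by a PCR-built, transcribed mutant library that underwent triplicate single-round in vitro selection with frozen incubation at −7 °C. Extended constructs were recovered by gel excision, streptavidin-bead capture and RT-PCR, and Illumina sequencing of input and output libraries kept genotypes with ≥10 input reads and ≥1 read per output. Fitness is the logarithm of genotype enrichment relative to wild-type enrichment, from inverse-variance-weighted replicate averages, with a logarithm base of 2.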

Variant	polymerase ribozyme fitness (log ratio)
A3G A39C	-3.26
A3G A26C A60G	-2.26
A3U C27U A49C G88C C96A C125G A142C	≤ -4.2
A3U U33A C43U G84A C85A G140C U146C	≤ -4.2
A3U C10U U15C	-1.19
A3G U13G A23C C43A C87U	≤ -4.2
A3U G83A A119G G141C	-1.17
A3U G74A C75G A91U A120U C132U	≤ -4.2
A3U A30C C36A A60U G84A C85A G140C U146C	≤ -4.2
A3U C76A	-1.8
A3G A19G A28U C99U U130G	≤ -4.2
A3U G59A C75U C93A A138G	-3.95
A3U C85G C125A U144A	-3.46
A3U A28U C57U C75G	≤ -4.2
A3U C87A	-3.25
A3U A89C C95A A110C	≤ -4.2
A3U U56A G88C U145G	-3.98
A3U A41G C85U G126U U144A	-1.79
U4A A41G G84A U139G U146C	-0.701
A3G G42C C69G C85G C118U C129U	≤ -4.2
A3U C93U G141A U146G	-2.5

Variant	polymerase ribozyme fitness (log ratio)
A3U U15A U82C G86A A91G	-3.4
A3U A37U G42C C57U C95A A120G	≤ -4.2
A3G G42A A49C C63U C69G C85G A115C	≤ -4.2
A3U A26U G42C G58U C87A C125U C131G C132G	≤ -4.2
A3U U135G	-4.19
A3U U56A G83A C85U A91G C95U C99A U144G	≤ -4.2
A3U G62U	-0.505
A3G G50A	-1.39
A3G C85A	-1.17
U4A A52G C57A G126U	-1.17
A3C C18G A30G C116G	≤ -4.2
A3G A20G	-0.654
A3C U45A G59U G92U	≤ -4.2
A3G A19U G92U A113C	-3.43
A3C C85A	-2.55
A3U C32A U45G G50C U53A A60G G94A A98G G141U	≤ -4.2
A3G A37C G80U	-3.88
A3U A30G A52U C79G G88U C95U A115G A120C G133U	-4.13
A3U U6G G48A A107G	≤ -4.2
A3U A39G G58C C96U	-3.39
A3C C93G	≤ -4.2
